Assay results from patent US20210040189A1 (Amgen, published 2021).
Residue numbers refer to the chain shown, from its start.

T1: mouse DKK1 (mouse, UniProt O54908 32-272)
T1 construct: also called murine DKK1
T1 sequence: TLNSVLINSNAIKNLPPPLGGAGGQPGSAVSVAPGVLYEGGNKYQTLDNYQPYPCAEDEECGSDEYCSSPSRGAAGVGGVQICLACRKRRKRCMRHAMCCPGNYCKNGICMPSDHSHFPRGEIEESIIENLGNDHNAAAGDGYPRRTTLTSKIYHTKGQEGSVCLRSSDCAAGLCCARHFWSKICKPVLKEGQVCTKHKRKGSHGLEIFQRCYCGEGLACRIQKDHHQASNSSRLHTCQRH

T2: human DKK1 (human, UniProt O94907 32-266)
T2 construct: also called huDKK1; hDKK1
T2 sequence: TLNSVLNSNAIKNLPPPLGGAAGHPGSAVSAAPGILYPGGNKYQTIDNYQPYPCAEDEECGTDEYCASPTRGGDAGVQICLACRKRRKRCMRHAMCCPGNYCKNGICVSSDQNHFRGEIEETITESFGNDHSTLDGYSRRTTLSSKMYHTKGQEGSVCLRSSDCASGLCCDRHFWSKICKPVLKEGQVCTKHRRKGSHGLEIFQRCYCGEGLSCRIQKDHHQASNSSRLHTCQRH

T3: cynomologous DKK1 (cynomolgus monkey, UniProt O94907 32-266 (human entry), limits assumed)
T3 construct: also called cyno DKK1
T3 chain: T2 sequence with H114N, T150S, S166T, D171A

T4: T4 (human)
T4 construct: also called tryptic D1 peptide T4
T4 chain: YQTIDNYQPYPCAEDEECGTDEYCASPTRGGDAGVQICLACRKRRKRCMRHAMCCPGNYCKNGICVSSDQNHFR

T5: CNBr1 (human, UniProt O94907 207-266)
T5 construct: Two peptides held together by 5 disulfide bonds; also called CNBr fragment of hDKK1 representing disulfide domain D2; not shown: added C-terminal flag peptide (positions 267-274)
T5 sequence 1: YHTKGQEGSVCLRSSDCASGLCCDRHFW
T5 sequence 2: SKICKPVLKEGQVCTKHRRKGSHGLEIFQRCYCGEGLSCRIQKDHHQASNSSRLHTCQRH

T6: T3 (human)
T6 construct: a separate HPLC peak; also called tryptic D1 fragment T3
T6 chain 1: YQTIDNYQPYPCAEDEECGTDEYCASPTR
T6 chain 2: GGDAGVQICLACR
T6 chain 3: CMR
T6 chain 4: HAMCCPGNYCK
T6 chain 5: NGICVSSDQNHFR

T7: T2 (human)
T7 construct: Five peptides held together by the five disulfide bonds of D1; from trypsin digestion of HuDKK1 alone; also called tryptic D1 fragment T2
T7 chain 1: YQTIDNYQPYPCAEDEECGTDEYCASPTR
T7 chain 2: GGDAGVQICLACR
T7 chain 3: CMR
T7 chain 4: HAMCCPGNYCK
T7 chain 5: NGICVSSDQNHFR

T8: huDkk4 (human, UniProt Q9UBT3 19-224, limits assumed)
T8 sequence (looked up): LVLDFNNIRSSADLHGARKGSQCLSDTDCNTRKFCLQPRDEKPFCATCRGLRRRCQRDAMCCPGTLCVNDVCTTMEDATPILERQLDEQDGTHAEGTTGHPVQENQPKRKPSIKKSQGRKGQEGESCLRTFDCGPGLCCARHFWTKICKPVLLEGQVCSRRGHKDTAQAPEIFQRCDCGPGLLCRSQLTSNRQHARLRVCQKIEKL

T9: AspN1 (human)
T9 construct: Two peptides held together by five disulfide bonds in D1
T9 chain 1: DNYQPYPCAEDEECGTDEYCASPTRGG
T9 chain 2: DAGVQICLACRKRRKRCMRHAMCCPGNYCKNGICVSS

T10: AspN2 (human)
T10 construct: a separate HPLC peak
T10 chain 1: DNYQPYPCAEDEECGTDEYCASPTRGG
T10 chain 2: T9 chain 2

B1: 6.116.6 (antibody, V domains shown)
VH: QVQLVESGGGVVQPGRSLRLSCAASGFTFSGYGMHWVRQAPGKGLEWVAVISYDGNDKYYADSVKGRFTISRDNAKNTLYLQMNSLRAEDTAVYYCARELRVLWGQGTLVTVSS
VL: DIVMTQTPLSLSVTPGQPASISCKSGQSLLHNDGKTYLYWYLQKPGQPPQFLIYEVSNRFSRVPDRFSGSGSGTDFTLKISRVEAEDVGIYYCMQSIQLPWTFGQGTQVEIK
notes: Fully human IgG, kappa (Vk)
B2: 2.40.1 (antibody, V domains shown)
VH: QVQLVESGGGVVQPGRSLRLSCAASGFTFSSYGMHWVRQAPGKGLGWVAVISYDGSDKYYADSVKGRFTISRDNSKNTLYLQMNSLRAEDTAVYYCARDLVDTAMPWGQGTTVTVSS
VL: B1 VL with T7S, G26S, N32S, F51L, R62G, I90V, L99V, Q108K
notes: Fully human hybridoma IgG, kappa (Vk)
B3: 6.37.5 (antibody, V domains shown)
VH: B1 VH
VL: B1 VL with N32S, K79R
notes: Fully human IgG, kappa (Vk)
B4: 5.25.1 (antibody, V domains shown)
VH: QVQLVQSGAEVKKPGASVKVSCKASGYTFTSYDINWVRQATGQGLEWMGWMDPNSGNTGYAQKFQGRVTMTRNTSISTAFMELSSLRSEDTAVYYCARTDYFYFGMDVWGQGTTVTVSS
VL: DIQMTQSPSSLSASVGDRVTITCQASQDISKDLNWYQQKPGKAPRLLIYDASNLETGVPSRFSGSGSGTDFTFTISSLQPEDIATFYCQQYDHLPIAFGQGTRLEIK
notes: as for B2
B5: 5.32.1 (antibody, V domains shown)
VH: QVQLVQSGAEVKKPGASVKVSCKASGFTFTSYDISWVRQATGLGLEWMGWMNPSSGYTGYAQNFQGRVTMTWNTSISTVYMELSSLRSEDTAVYYCARTDYYYYGMDVWGRGTTVTVSS
VL: B4 VL with R45K, F86Y, H93D, A97T
notes: as for B2

What was measured:
mouse DKK1 = target: T1, mouse DKK1; assay: KinExA 3000 equilibrium binding in solution
Protocol: (§1) Accordingly, the affinity of several of these antibodies to DKK1 was further assessed by an equilibrium binding analysis using the more sensitive KinExAtm 3000. For these measurements, Reacti-Gel 6× beads (Pierce, Rockford, Ill.) were pre-coated with human, cynomologous or mouse DKK1 and blocked with BSA. One hundred pM, 300 pM, or 1000 pM of the antibody was mixed with various concentrations of human, mouse or cyno DKK1, ranging in concentration from 1 pM to 50 nM, and equilibrated at room temperature for 8 hours. The mixtures were then passed over the DKK1-coated beads. The amount of bead-bound anti-DKK1 antibody was quantified using goat anti-human-IgG antibody labeled with a fluorescent tag (Cy5; Jackson Immuno Research, West Grove, Pa.). The amount of fluorescent signal measured was proportional to the concentration of free anti-DKK1 antibody in each reaction mixture at equilibrium. The dissociation equilibrium constant (Kd) was obtained from nonlinear regression of the competition curves using a dual-curve one-site homogeneous binding model using the KinExA software.

human DKK1 [1] = target: T2, human DKK1; assay: KinExA 3000 equilibrium binding in solution
Protocol: as §1

cynomologous DKK1 = target: T3, cynomologous DKK1; assay: KinExA 3000 equilibrium binding in solution
Protocol: as §1

human DKK1 [2] = target: T2, human DKK1; assay: cell-based or functional assay
human DKK1 [3] = target: T2, human DKK1; assay: BiaCore 2000
Text: BiaCore allowed us to determine the kd of the selected antibodies.

T4 = target: T4, T4; assay: BiaCore, competition with surface-bound DKK1
CNBr1 = target: T5, CNBr1; assay: BiaCore
T3 = target: T6, T3; assay: BiaCore
T2 = target: T7, T2; assay: BiaCore
huDkk4 = target: T8, huDkk4; assay: BiaCore
AspN1 = target: T9, AspN1; assay: BiaCore
AspN2 = target: T10, AspN2; assay: BiaCore

Row | Binder | Kd (mouse DKK1) [nM] | Kd (human DKK1 [1]) [nM] | Kd (cynomologous DKK1) [nM] | ST2 EC50 (human DKK1 [2]) [nM] | TCF EC50 (human DKK1 [2]) [nM] | koff (human DKK1 [3]) [s⁻¹] | binding result (T4) | binding result (CNBr1) | binding result (T3) | binding result (T2) | binding result (huDkk4) | binding result (AspN1) | binding result (AspN2)
1 | B1 | 0.04 | 0.025 | 0.04 | 2.77 | 4.69 | 2e-05 |  |  |  |  |  |  | 
2 | B2 | 0.48 | 0.22 | 0.22 | 2.47 | 1.28 | 6.27e-05 |  |  |  |  |  |  | 
3 | B3 | 0.05 | 0.03 | 0.035 | 3.98 | 6.57 | 4e-05 |  |  |  |  |  |  | 
4 | B4 | 0.15 | 0.003 |  | 5.96 | 1.88 | < 2e-05 | binds | no binding | no binding | no binding | no binding | binds | binds
5 | B5 | 0.04 | 0.003 |  | 3.48 | 1.01 | 0.000191 |  |  |  |  | no binding |  | 
